Experimental data published in paper PMC6391921.
pKd: −log10 of the molar value.

Assays:
Experiment in all cases: BLI
[1] = molecular target: H3ssF_C, H3 stabilized HA stem ferritin nanoparticle, design C (influenza A virus A/Finland/486/2004 (H3N2) | not stated) (UniProt Q9ZLI1)
[2] = molecular target: H3ssF_H, H3 stabilized HA stem ferritin nanoparticle, design H (influenza A virus A/Finland/486/2004 (H3N2) | not stated) (UniProt Q9ZLI1)
[3] = molecular target: full-length H3 HA trimer (influenza A virus (H3))

## CT149 Fab
[1]
  pKd: 7.67
  koff: 0.017 s⁻¹
  kon: 810000 M⁻¹ s⁻¹
[2]
  pKd: 7.65
  koff: 0.018 s⁻¹
  kon: 820000 M⁻¹ s⁻¹
[3]
  pKd: 7.37
  koff: 0.0032 s⁻¹
  kon: 75000 M⁻¹ s⁻¹
